Measurements reported in the RNAGym collection of RNA variant scans (doi:10.1101/gr.219683.116).

B1: mRNA-splicing (parent)
chain: AGUUGCUGCUGGGAGCUCCAGCACAGUGAAAUGGACAGAAGGGCAGAGCAA

Variants of: B1
Assay: exon inclusion enrichment index; higher = more inclusion; WT1 exon 5 minigene, HEK293

Point of comparison: AGUUAUAUAUGGGAGCGCCAGCACAGUGAAAUGGACAGAAGGGCAGAGCAA [G5A C6U U7A G8U C9A U17G], “exon inclusion enrichment index” value 0.0456. Against it:
- AGUUAUGCAUGGGAGCUCCAGCACAGUGAAAUGGACAGAAGGGCAGAGCAA [G5A C6U U7G G8C C9A] — higher, 0.407
- AGUUAUAUAUGGGAGCUCCAGCACAGCUAAAUGGACAGAAGGGCAGAGCAA [G5A C6U U7A G8U C9A U27C G28U] — higher, 0.0508
- AGUUAUAUAUGGGAGCUCCAGCACAGCCAAAUGGACAGAAGGGCAGAGCAA [G5A C6U U7A G8U C9A U27C G28C] — higher, 0.1
- AGUUAUAUAUGGGAGCUCCAGCACAGCAAAAUGGACAGAAGGGCAGAGCAA [G5A C6U U7A G8U C9A U27C G28A] — higher, 0.0919
- AGUUACCAUAGGGAGCUCCAGCACAGUGAAAUGGACAGAAGGGCAGAGCAA [G5A U7C G8A C9U U10A] — lower, 0.0302
- AGUUACCAUCGGGAGCUCCAGCACAGUGAAAUGGACAGAAGGGCAGAGCAA [G5A U7C G8A C9U U10C] — higher, 2.24
- AGUUAUAUAUGGGAGCAUCAGCACAGUGAAAUGGACAGAAGGGCAGAGCAA [G5A C6U U7A G8U C9A U17A C18U] — lower, 0.0116
- AGUUAUAUAUGGGAGCAACAGCACAGUGAAAUGGACAGAAGGGCAGAGCAA [G5A C6U U7A G8U C9A U17A C18A] — lower, 0.0198
- AGUUAUAUAUGGGAGCAGCAGCACAGUGAAAUGGACAGAAGGGCAGAGCAA [G5A C6U U7A G8U C9A U17A C18G] — lower, 0.0258
- AGUUAUAUAUGGGAGCUCCAGCACAGUGAAAGUGACAGAAGGGCAGAGCAA [G5A C6U U7A G8U C9A U32G G33U] — lower, 0.0122
- AGUUAUAUAUGGGAGCUCCAGCACAGUGAAAGAGACAGAAGGGCAGAGCAA [G5A C6U U7A G8U C9A U32G G33A] — lower, 0.00894
- AGUUAUAUAUGGGAGCUCCAGCACAGUGAAAGCGACAGAAGGGCAGAGCAA [G5A C6U U7A G8U C9A U32G G33C] — higher, 0.0522
- AGUUAUGACCGGGAGCUCCAGCACAGUGAAAUGGACAGAAGGGCAGAGCAA [G5A C6U U7G G8A U10C] — higher, 1.97
- AGUUAUAUAUGGGAGCUCCAGCACAGGGAAAUGGACAGAAGGGCAGAGCAA [G5A C6U U7A G8U C9A U27G] — lower, 0.0103
- AGUUAUAUAUGGGAGCUCCAGCACAGAGAAAUGGACAGAAGGGCAGAGCAA [G5A C6U U7A G8U C9A U27A] — higher, 0.0803
- AGUUAUAUAUGGGAGCUCCAGCACAGCGAAAUGGACAGAAGGGCAGAGCAA [G5A C6U U7A G8U C9A U27C] — higher, 0.399
- AGUUACCAGUGGGAGCUCCAGCACAGUGAAAUGGACAGAAGGGCAGAGCAA [G5A U7C G8A C9G] — higher, 0.872
- AGUUACCAUUGGGAGCUCCAGCACAGUGAAAUGGACAGAAGGGCAGAGCAA [G5A U7C G8A C9U] — higher, 0.959
- AGUUACCAAUGGGAGCUCCAGCACAGUGAAAUGGACAGAAGGGCAGAGCAA [G5A U7C G8A C9A] — higher, 0.923
- AGUUAUGGAUGGGAGCUCCAGCACAGUGAAAUGGACAGAAGGGCAGAGCAA [G5A C6U U7G C9A] — higher, 0.561
- AGUUACAACCGGGAGCUCCAGCACAGUGAAAUGGACAGAAGGGCAGAGCAA [G5A U7A G8A U10C] — higher, 1.72
- AGUUACCGUCGGGAGCUCCAGCACAGUGAAAUGGACAGAAGGGCAGAGCAA [G5A U7C C9U U10C] — higher, 2.63
- AGUUAUAUUGGGGAGCUCCAGCACAGUGAAAUGGACAGAAGGGCAGAGCAA [G5A C6U U7A G8U C9U U10G] — lower, 0.0345
- AGUUAUAUUCGGGAGCUCCAGCACAGUGAAAUGGACAGAAGGGCAGAGCAA [G5A C6U U7A G8U C9U U10C] — higher, 0.453
- AGUUAUAUUAGGGAGCUCCAGCACAGUGAAAUGGACAGAAGGGCAGAGCAA [G5A C6U U7A G8U C9U U10A] — lower, 0.00135
- AGUUAUAUACUGGAGCUCCAGCACAGUGAAAUGGACAGAAGGGCAGAGCAA [G5A C6U U7A G8U C9A U10C G11U] — higher, 0.148
- AGUUAUAUACCGGAGCUCCAGCACAGUGAAAUGGACAGAAGGGCAGAGCAA [G5A C6U U7A G8U C9A U10C G11C] — higher, 0.845
- AGUUAUAUACAGGAGCUCCAGCACAGUGAAAUGGACAGAAGGGCAGAGCAA [G5A C6U U7A G8U C9A U10C G11A] — lower, 0.0351
- AGUUACCGACGGGAGCUCCAGCACAGUGAAAUGGACAGAAGGGCAGAGCAA [G5A U7C C9A U10C] — higher, 2.95
- AGUUAUAUAUGGGAGCUCCAGCACAGUGAAAAUGACAGAAGGGCAGAGCAA [G5A C6U U7A G8U C9A U32A G33U] — lower, 0.0199
- AGUUAUAUAUGGGAGCUCCAGCACAGUGAAAAAGACAGAAGGGCAGAGCAA [G5A C6U U7A G8U C9A U32A G33A] — lower, 0.00941
- AGUUAUAUAUGGGAGCUCCAGCACAGUGAAAACGACAGAAGGGCAGAGCAA [G5A C6U U7A G8U C9A U32A G33C] — higher, 0.0967
- AGUUACUUUUGGGAGCUCCAGCACAGUGAAAUGGACAGAAGGGCAGAGCAA [G5A G8U C9U] — higher, 0.166
- AGUUACUUAUGGGAGCUCCAGCACAGUGAAAUGGACAGAAGGGCAGAGCAA [G5A G8U C9A] — higher, 0.187
- AGUUAUGAAUGGGAGCUCCAGCACAGUGAAAUGGACAGAAGGGCAGAGCAA [G5A C6U U7G G8A C9A] — higher, 0.546
- AGUUAUGUAUGGGAGCUCCAGCACAGUGAAAUGGACAGAAGGGCAGAGCAA [G5A C6U U7G G8U C9A] — higher, 0.144
- AGUUAUAUAUGGGAGCUCCAGCACAGUGAAACCGACAGAAGGGCAGAGCAA [G5A C6U U7A G8U C9A U32C G33C] — higher, 0.144
- AGUUAUAUAUGGGAGCUCCAGCACAGUGAAACAGACAGAAGGGCAGAGCAA [G5A C6U U7A G8U C9A U32C G33A] — lower, 0.0199
- AGUUAUAUAUGGGAGCUCCAGCACAGUGAAACUGACAGAAGGGCAGAGCAA [G5A C6U U7A G8U C9A U32C G33U] — lower, 0.0226
- AGUUAUCGAUGGGAGCUCCAGCACAGUGAAAUGGACAGAAGGGCAGAGCAA [G5A C6U U7C C9A] — higher, 1.32
- AGUUAUAUAUGGGAGCUCCAGCACAGGUAAAUGGACAGAAGGGCAGAGCAA [G5A C6U U7A G8U C9A U27G G28U] — lower, 0.00125
- AGUUAUAUAUGGGAGCUCCAGCACAGGCAAAUGGACAGAAGGGCAGAGCAA [G5A C6U U7A G8U C9A U27G G28C] — lower, 0.0308
- AGUUAUAUAUGGGAGCUCCAGCACAGGAAAAUGGACAGAAGGGCAGAGCAA [G5A C6U U7A G8U C9A U27G G28A] — higher, 0.12
- AGUUAUAUAGAGGAGCUCCAGCACAGUGAAAUGGACAGAAGGGCAGAGCAA [G5A C6U U7A G8U C9A U10G G11A] — lower, 0.0194
- AGUUAUAUAGCGGAGCUCCAGCACAGUGAAAUGGACAGAAGGGCAGAGCAA [G5A C6U U7A G8U C9A U10G G11C] — lower, 0.022
- AGUUAUAUAGUGGAGCUCCAGCACAGUGAAAUGGACAGAAGGGCAGAGCAA [G5A C6U U7A G8U C9A U10G G11U] — lower, 0.014
- AGUUACUCUCGGGAGCUCCAGCACAGUGAAAUGGACAGAAGGGCAGAGCAA [G5A G8C C9U U10C] — higher, 1.05
- AGUUAUCAAUGGGAGCUCCAGCACAGUGAAAUGGACAGAAGGGCAGAGCAA [G5A C6U U7C G8A C9A] — higher, 0.442
- AGUUAUAUAUGGGAGCACCAGCACAGUGAAAUGGACAGAAGGGCAGAGCAA [G5A C6U U7A G8U C9A U17A] — higher, 0.0566
- AGUUAUAUAUGGGAGCCCCAGCACAGUGAAAUGGACAGAAGGGCAGAGCAA [G5A C6U U7A G8U C9A U17C] — lower, 0.0376
